Source: patent US20230312742A1 (Y MABS THERAPEUTICS, published 2023)
Numbering of substitutions follows the chain as printed. Numbers in names are those of the source.

B1: 8DC-5 (anti-CD38 scFv-(G4S)4-huC825 anti DOTA scFv-linker-P53-linker-His tag) (bispecific antibody)
chain: DIQLTQSPSSLSASVGDRVTITCKASEDIYNRLTWYQQKPGKAPKLLISGATSLETGVPSRFSGSGSGKDYTFTISSLQPEDFATYYCQQYWSNPYTFGCGTKLEIKGGGGSGGGGSGGGGSGGGGSGGGGSGGGGSQVQLQESGPGLVKPSETLSLTCTVSGFSLTSYGVHWVRQPPGKCLEWIGVMWRGGSTDYNAAFKSRVTISKDNSKNQVSLKLSSVTAADTAVYYCAKSMITTGFVMDSWGQGTLVTVSSGGGGSGGGGSGGGGSGGGGSHVQLVESGGGLVQPGGSLRLSCAASGFSLTDYGVHWVRQAPGKGLEWLGVIWSGGGTAYNTALISRFTISRDNSKNTLYLQMNSLRAEDTAVYYCARRGSYPYNYFDAWGCGTLVTVSSGGGGSGGGGSGGGGSGGGGSGGGGSGGGGSQAVVTQEPSLTVSPGGTVTLTCGSSTGAVTASNYANWVQQKPGQCPRGLIGGHNNRPPGVPARFSGSLLGGKAALTLLGAQPEDEAEYYCALWYSDHWVIGGGTKLTVLGTPLGDTTHTSGKPLDGEYFTLQIRGRERFEMFRELNEALELKDAQAGKEPGGSGGAPHHHHHH
notes: SADA construct with VL8 and VH11 (extra disulfide in the anti-CD38 scFv), VL-VH order
B2: 8DC-1 (anti-CD38 scFv-(G4S)4-huC825 anti DOTA scFv-linker-P53-linker-His tag) (bispecific antibody)
chain: QVQLKQSGPGLVHPSQSLSITCTVSGFSLTSYGVHWVRQSPGKGLEWLGVMWRGGSTDYNAAFMSRLNITKDNSKRQVFFKMNSLQADDTAIYYCAKSMITTGFVMDSWGQGTSVTVSSGGGGSGGGGSGGGGSGGGGSGGGGSGGGGSDIQLTQSPSSFSVSLGDRVTITCKASEDIYNRLTWYQQKPGNAPRLLISGATSLETGVPSRFSGSGSGKDYTLSITSLQTEDVATYYCQQYWSNPYTFGGGTKLEIRGGGGSGGGGSGGGGSGGGGSHVQLVESGGGLVQPGGSLRLSCAASGFSLTDYGVHWVRQAPGKGLEWLGVIWSGGGTAYNTALISRFTISRDNSKNTLYLQMNSLRAEDTAVYYCARRGSYPYNYFDAWGCGTLVTVSSGGGGSGGGGSGGGGSGGGGSGGGGSGGGGSQAVVTQEPSLTVSPGGTVTLTCGSSTGAVTASNYANWVQQKPGQCPRGLIGGHNNRPPGVPARFSGSLLGGKAALTLLGAQPEDEAEYYCALWYSDHWVIGGGTKLTVLGTPLGDTTHTSGKPLDGEYFTLQIRGRERFEMFRELNEALELKDAQAGKEPGGSGGAPHHHHHH
notes: SADA construct with the murine AT13/5 VH and VL; also called the murine antibody
B3: 8DC3OK (CD3xCD38 bispecific antibody, IgG-L-scFv format, humanized VL5 and VH8) (bispecific antibody)
light: DIQLTQSPSSLSASVGDRVTITCKASEDIYNRLTWYQQKPGKAPKLLISGATSLETGVPSRFSGSGSGKDYTFTISSLQPEDFATYYCQQYWSNPYTFGQGTKLEIKRTVAAPSVFIFPPSDEQLKSGTASVVCLLNNFYPREAKVQWKVDNALQSGNSQESVTEQDSKDSTYSLSSTLTLSKADYEKHKVYACEVTHQGLSSPVTKSFNRGECGGGGSGGGGSGGGGSGGGGSQVQLVQSGGGVVQPGRSLRLSCKASGYTFTRYTMHWVRQAPGKCLEWIGYINPSRGYTNYNQKFKDRFTISRDNSKNTAFLQMDSLRPEDTGVYFCARYYDDHYSLDYWGQGTPVTVSSGGGGSGGGGSGGGGSGGGGSGGGGSGGGGSDIQMTQSPSSLSASVGDRVTITCSASSSVSYMNWYQQTPGKAPKRWIYDTSKLASGVPSRFSGSGSGTDYTFTISSLQPEDIATYYCQQWSSNPFTFGCGTKLQITR
heavy: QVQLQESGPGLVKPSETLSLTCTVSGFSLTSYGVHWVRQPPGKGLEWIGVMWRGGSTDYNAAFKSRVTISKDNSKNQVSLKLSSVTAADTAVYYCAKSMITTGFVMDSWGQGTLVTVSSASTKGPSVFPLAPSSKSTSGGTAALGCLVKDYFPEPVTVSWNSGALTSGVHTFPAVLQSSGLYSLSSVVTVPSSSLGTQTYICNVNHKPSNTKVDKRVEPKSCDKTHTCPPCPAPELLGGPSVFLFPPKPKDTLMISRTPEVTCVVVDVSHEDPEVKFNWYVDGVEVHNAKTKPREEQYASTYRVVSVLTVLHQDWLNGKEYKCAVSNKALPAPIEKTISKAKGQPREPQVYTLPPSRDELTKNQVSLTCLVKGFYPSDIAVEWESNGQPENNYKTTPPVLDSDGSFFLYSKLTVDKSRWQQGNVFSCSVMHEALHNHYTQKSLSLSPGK
notes: Light chain: anti-CD38 VL-CL-(G4S)4-huOKT3 VH-(G4S)6-huOKT3 VL
B4: 8DC-3 (anti-CD38 scFv-(G4S)4-huC825 anti DOTA scFv-linker-P53-linker-His tag) (bispecific antibody)
chain: QVQLQESGPGLVKPSETLSLTCTVSGFSLTSYGVHWVRQPPGKGLEWIGVMWRGGSTDYNAAFKSRVTISKDNSKNQVSLKLSSVTAADTAVYYCAKSMITTGFVMDSWGQGTLVTVSSGGGGSGGGGSGGGGSGGGGSGGGGSGGGGSDIQLTQSPSSLSASVGDRVTITCKASEDIYNRLTWYQQKPGKAPKLLISGATSLETGVPSRFSGSGSGKDYTFTISSLQPEDFATYYCQQYWSNPYTFGQGTKLEIKGGGGSGGGGSGGGGSGGGGSHVQLVESGGGLVQPGGSLRLSCAASGFSLTDYGVHWVRQAPGKGLEWLGVIWSGGGTAYNTALISRFTISRDNSKNTLYLQMNSLRAEDTAVYYCARRGSYPYNYFDAWGCGTLVTVSSGGGGSGGGGSGGGGSGGGGSGGGGSGGGGSQAVVTQEPSLTVSPGGTVTLTCGSSTGAVTASNYANWVQQKPGQCPRGLIGGHNNRPPGVPARFSGSLLGGKAALTLLGAQPEDEAEYYCALWYSDHWVIGGGTKLTVLGTPLGDTTHTSGKPLDGEYFTLQIRGRERFEMFRELNEALELKDAQAGKEPGGSGGAPHHHHHH
notes: SADA construct with VL5 and VH8
B5: 8DC-4 (anti-CD38 scFv-(G4S)4-huC825 anti DOTA scFv-linker-P53-linker-His tag) (bispecific antibody)
chain: B4 chain with G44C, Q249C
notes: SADA construct with VL8 and VH11 (extra disulfide in the anti-CD38 scFv), VH-VL order
B6: 8DC-2 (anti-CD38 scFv-(G4S)4-huC825 anti DOTA scFv-linker-P53-linker-His tag) (bispecific antibody)
chain: QVQLQESGPGLVRPSQTLSLTCTVSGFTFTSYGVHWVRQPPGRGLEWIGVMWRGGSTDYNAAFMSRVTMLVDTSKNQFSLRLSSVTAADTAVYYCAKSMITTGFVMDSWGQGSLVTVSSGGGGSGGGGSGGGGSGGGGSGGGGSGGGGSDIQMTQSPSSLSASVGDRVTITCKASEDIYNRLTWYQQKPGKAPKLLISGATSLETGVPSRFSGSGSGTDFTFTISSLQPEDIATYYCQQYWSNPYTFGQGTKVEIKGGGGSGGGGSGGGGSGGGGSHVQLVESGGGLVQPGGSLRLSCAASGFSLTDYGVHWVRQAPGKGLEWLGVIWSGGGTAYNTALISRFTISRDNSKNTLYLQMNSLRAEDTAVYYCARRGSYPYNYFDAWGCGTLVTVSSGGGGSGGGGSGGGGSGGGGSGGGGSGGGGSQAVVTQEPSLTVSPGGTVTLTCGSSTGAVTASNYANWVQQKPGQCPRGLIGGHNNRPPGVPARFSGSLLGGKAALTLLGAQPEDEAEYYCALWYSDHWVIGGGTKLTVLGTPLGDTTHTSGKPLDGEYFTLQIRGRERFEMFRELNEALELKDAQAGKEPGGSGGAPHHHHHH
notes: SADA construct with VL7 and VH10 (published huAT13/5 of Ellis et al.)

What was measured:
[1] = molecular target: T1, human CD38 antigen (recombinant human CD38 protein) (human, UniProt P28907 43-300, limits assumed); experiment: SPR, His-tagged SADA construct captured on a NiHC200M chip, recombinant human CD38 protein injected
[2] = molecular target: T2, CD38 on CD38(+) cancer cells (RPMI8226, Raji, Daudi) (UniProt P28907 1-300, limits assumed); experiment: flow cytometry on RPMI 8226 cells, detection with an anti-his tag antibody
T2 construct: whole, on cells; Endogenous CD38 on tumour cell lines; also called CD38(+) tumor cells; CD38(+) Raji cells

[3] = molecular target: T2, CD38 on CD38(+) cancer cells (RPMI8226, …); experiment: flow cytometry on Raji cells, detection with an anti-his tag antibody
[4] = molecular target: T1, human CD38 antigen (recombinant human …); experiment: SPR, His-tagged SADA captured on NiHC200M chip, recombinant human CD38 in solution; average
[5] = molecular target: T1, human CD38 antigen (recombinant human …); experiment: SPR, construct captured on immobilised protein-L (HC30M chip), human CD38 antigen flown over
[6] = molecular target: T1, human CD38 antigen (recombinant human …); experiment: SPR, antibody captured on Protein-L chip, human CD38 in solution; murine antibody, not named
[7] = molecular target: T1, human CD38 antigen (recombinant human …); experiment: SPR, BsAb (1 µg/ml) captured on anti-human Fc chip, human CD38 in solution; average, N=6
[8] = molecular target: T2, CD38 on CD38(+) cancer cells (RPMI8226, …); experiment: flow cytometry on RPMI8226 cells
[9] = molecular target: T2, CD38 on CD38(+) cancer cells (RPMI8226, …); experiment: flow cytometry on Daudi cells, goat anti-human IgG fluorochrome-conjugated secondary antibody
[10] = molecular target: T1, human CD38 antigen (recombinant human …); experiment: SPR, antibody captured on Protein-L chip, human CD38 in solution; humanized 8DC3
[11] = molecular target: T1, human CD38 antigen (recombinant human …); experiment: SPR, His-tagged SADA construct captured on a NiHC200M chip, recombinant human CD38 protein injected; remark: listed apart in the source
[12] = molecular target: T1, human CD38 antigen (recombinant human …); experiment: SPR, antibody captured on Protein-L chip, human CD38 in solution

| Binder | EC50 (read off the curve) [2] [mg/L] | EC50 (read off the curve) [3] [mg/L] | Kd [4] [nM] | kon [4] [M⁻¹ s⁻¹] | koff [5] [s⁻¹] | kon [5] [M⁻¹ s⁻¹] | further results |
| --- | --- | --- | --- | --- | --- | --- | --- |
| B1 | ~0.05 | ~0.07 | 0.17 | 96000 |  |  | Kd [1]: 0.214 nM |
| B2 | ~0.06 | ~0.05 |  |  | 0.0012 | 160000 | Kd [6]: 7.4 nM |
| B3 |  |  |  |  |  |  | Kd [7]: 8.8 nM; koff [7]: 0.0018 s⁻¹; kon [7]: 210000 M⁻¹ s⁻¹; EC50 [8]: 0.167 mg/L; fold weaker EC50 than the chimeric antibody 8DC1OK [8]: ~2 fold; EC50 (read off the curve) [9]: ~0.1 mg/L |
| B4 |  | ~0.06 |  |  | 0.00085 | 27000 | Kd [10]: 31 nM |
| B5 | ~0.07 | ~0.05 | 0.28 | 89000 |  |  | Kd [11]: 0.532 nM |
| B6 |  |  |  |  | 0.001 | 6400 | Kd [12]: 163 nM |
